Experimental findings from publication PMC4432866 (Nature communications, 2014) are described below.

Where two headings read alike, the source gives them in different places. Ends that are not written are not given here.

The labels stand for the following.
B1: talin-F3 (His-tagged, pull-down) (domain or fragment, mouse, UniProt P26039 309-405, looked up)
chain: GVSFFLVKEKMKGKNKLVPRLLGITKECVMRVDEKTKEVIQEWSLTNIKRWAASPKSFTLDFGDYQDGYYSVQTTEGEQIAQLIAGYIDIILKKKKS
B2: talin-R9 (domain or fragment, mouse, UniProt P26039 1654-1848, looked up)
chain: KAPGQLECETAIAALNSCLRDLDQASLAAVSQQLAPREGISQEALHTQMLTAVQEISHLIEPLASAARAEASQLGHKVSQMAQYFEPLTLAAVGAASKTLSHPQQMALLDQTKTLAESALQLLYTAKEAGGNPKQAAHTQEALEEAVQMMTEAVEDLTTTLNEAASAAGVVGGMVDSITQAINQLDEGPMGDPEG

Test [1] has as its target T1, talin-F2F3 (mouse, UniProt P26039 206-405). The experiment in a line: NMR titration.
The target of the next test is talin-F3 (mouse, UniProt P26039 309-405). The experiment in a line: NMR titration.
The target of test [2] is talin-R9 (pull-down competitor) (mouse, UniProt P26039 1654-1848). The experiment in a line: pull-down.
For test [3], the target named is T1, talin-F2F3. In words: NMR titration. This is another data set of the same source.
The target in test [4] is B1. In words: pull-down.

For the molecule DIDQMFSTLLGEMDLLTQSLGVDT (peptide, UniProt Q7Z5R6 7-30, looked up) [RIAM-N], the binding result with talin-F2F3 [1] and in the test with talin-F3 was “binds” in each case.

On to B1, for which the binding result in test [2] is “binds”.

Turning to B2, in the test with talin-F2F3 [3], the binding result was “binds”.

KKKITIHDRKEFAKFEEERARAKWDTANNPLYKEATSTFTNITYRGT (peptide, UniProt P05106 742-788, looked up) [integrin β3 CT (716–762) L717K/L718K]: the binding result in the test with talin-F3 is “binds”.

KKKITIHDRKEFAKFEEERARAKWDTANNPLYKEATSTFTNITYRGT (peptide, UniProt P05106 742-788, looked up, also: His-tagged) [integrin β3 CT (716–762) L717K/L718K (His-tagged, pull-down)]: in test [4], the binding result is listed as “binds”.
